Source: patent US20200247894A1 (Regeneron, published 2020)

T1: Human IL2Rγ extracellular domain expressed with a C-terminal myc-myc-hexahistidine tag (human)
T1 construct: also called hIL-2Rg-MMH; hIL-2RG-MMH
T1 chain: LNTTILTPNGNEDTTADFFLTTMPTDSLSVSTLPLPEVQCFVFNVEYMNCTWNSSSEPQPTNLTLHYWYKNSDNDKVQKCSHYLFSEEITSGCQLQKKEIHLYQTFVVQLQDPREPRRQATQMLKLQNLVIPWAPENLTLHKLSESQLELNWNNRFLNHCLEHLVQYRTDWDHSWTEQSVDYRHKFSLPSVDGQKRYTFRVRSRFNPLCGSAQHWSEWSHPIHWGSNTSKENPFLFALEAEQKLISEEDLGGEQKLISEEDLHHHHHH

T2: Macaca fascicularis IL2Rγ extracellular domain expressed with a C-terminal myc-myc-hexahistidine tag (Macaca fascicularis)
T2 construct: also called mfIL-2Rg-MMH; mfIL-2RG-MMH
T2 chain: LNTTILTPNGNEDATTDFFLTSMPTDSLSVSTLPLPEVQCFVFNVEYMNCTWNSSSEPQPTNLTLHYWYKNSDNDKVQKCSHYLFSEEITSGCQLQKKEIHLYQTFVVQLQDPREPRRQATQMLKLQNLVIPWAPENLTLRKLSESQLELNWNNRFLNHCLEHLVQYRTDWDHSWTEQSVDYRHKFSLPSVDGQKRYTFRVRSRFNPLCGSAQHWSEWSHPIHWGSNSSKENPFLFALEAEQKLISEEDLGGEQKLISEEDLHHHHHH


Tests used:
[1] = molecular target: T1, Human IL2Rγ extracellular domain …; experiment: SPR, captured mAb, 25C, dissociation pH 7.4
Method: (§1) The dissociation rate constant (kd) for binding of IL-2Rγ reagents to purified anti-IL2Rγ monoclonal antibodies was determined using a real-time surface plasmon resonance based Biacore 4000 biosensor platform. […] The CM5 Biacore sensor surface derivatized by amine coupling with monoclonal mouse anti-human Fc antibody (GE, Catalog # BR-1008-39) was used to capture anti-IL2Rγ monoclonal antibodies expressed with human IgG4 Fc. All the IL2Rγ reagents were expressed with a C-terminal myc-myc-hexahistidine tag (subsequently referred to with a -MMH suffix). […] The dissociation of bound IL-2Rg-MMH was performed in PBS-T-pH7.4 or PBS-T-pH6.0 running buffers for 6 minutes.
(§2) Dissociation rate constants (kd) in two running buffers were determined by fitting the real-time binding sensorgrams to a 1:1 binding model using Scrubber 2.0c curve-fitting software. Values of dissociation rate for […] mAb binding to hIL-2RG-MMH and mfIL-2RG-MMH at 25° C. and 37° C. in PBS-T-pH7.4 and PBS-T-pH6.0 is shown in Table 2-1 through Table 2-8.

[2] = molecular target: T2, Macaca fascicularis IL2Rγ extracellular …; experiment: SPR, captured mAb, 25C, dissociation pH 7.4
Method: as §1, §2

[3] = molecular target: T1, Human IL2Rγ extracellular domain …; experiment: SPR, captured mAb, 25C, dissociation pH 6.0
Method: as §1, §2

[4] = molecular target: T2, Macaca fascicularis IL2Rγ extracellular …; experiment: SPR, captured mAb, 25C, dissociation pH 6.0
Method: as §1, §2

[5] = molecular target: T1, Human IL2Rγ extracellular domain …; experiment: SPR, captured mAb, 37C, dissociation pH 7.4
Method: as §1, §2

[6] = molecular target: T1, Human IL2Rγ extracellular domain …; experiment: SPR, captured mAb, 37C, dissociation pH 6.0
Method: as §1, §2

100 nM Ag Bound (RU) [1] [RU] | koff [1] [s⁻¹] | t1/2 [1] [min] | 100 nM Ag Bound (RU) [2] [RU] | koff [2] [s⁻¹] | t1/2 [2] [min] | 100 nM Ag Bound (RU) [3] [RU] | koff [3] [s⁻¹] | t1/2 [3] [min] | 100 nM Ag Bound (RU) [4] [RU] | koff [4] [s⁻¹] | t1/2 [4] [min] | 100 nM Ag Bound (RU) [5] [RU] | koff [5] [s⁻¹] | t1/2 [5] [min] | 100 nM Ag Bound (RU) [6] [RU] | koff [6] [s⁻¹] | t1/2 [6] [min] | Binder
31 | 0.000177 | 65 | 37 | 0.000208 | 56 | 34 | 0.000505 | 23 | 34 | 0.000488 | 24 | 54 | 0.000671 | 17 | 52 | 0.00163 | 7 | H4H12908P (antibody, human IgG4 S228P, kappa, V domains shown, anti-IL2Rgamma mAb expressed with human IgG4 Fc) VH: EVQLVESGGRLVQPGGSLRLSCEASGFTFSNYGMTWVRQAPGKGLEWVSVISGSDNRKYYAESVKGRFTISRDNSKNTLYLQMNSLRAEDTAVYYCAKLGYSRSSKDFYYGMDVWGQGTTVTVSS VL: not shown
113 | 0.000155 | 75 | 113 | 0.000175 | 66 | 84 | 0.000634 | 18 | 83 | 0.000682 | 17 | 146 | 0.000519 | 22 | 115 | 0.00216 | 5 | H4H12886P (antibody, human IgG4 S228P, kappa, V domains shown, anti-IL2Rgamma mAb expressed with human IgG4 Fc) VH: EVQLVESGGGLVKPGGSLRLSCAASGFTFSTAWMSWVRQSPGRGLEWVGRMKSKTDGGTTFYAAPVKGRFTISRDDSKNTLYLQMNSLKTEDTAVYYCTTGLVPAFYKYYGVDVWGQGTTVTVSS VL: DIQMTQSPSSLSASVGDRITITCQASQDITNYLNWYQQKPGKAPNLLIYDASNLVTGVPSRFSGSGSGTDFTFTILSLQPEDIATYYCQQYDSLLTFGPGTKVDIKR
57 | 0.000602 | 19 | 67 | 0.000584 | 20 | 45 | 0.00175 | 7 | 52 | 0.0017 | 7 | 54 | 0.0041 | 2.8 | 39 | 0.00827 | 1.4 | H4H13544P2 (antibody, human IgG4 S228P, kappa, V domains shown, anti-IL2Rgamma mAb expressed with human IgG4 Fc) VH: QLQLQESGPGLVKPSETLSLTCTVSGGSISIKNYYWGWIRQPPGKGLEWIGSIYYSGTTYYNPSLKSRVTISVDTSKNQFSLKLSSVTAADTAVYHCARHGYSYGHGWFDPWGQGTLVTVSS VL: not shown
72 | 0.000192 | 60 | 71 | 0.000203 | 57 | 64 | 0.000636 | 18 | 60 | 0.000668 | 17 | 90 | 0.000661 | 17 | 82 | 0.00286 | 4 | H4H12890P (antibody, human IgG4 S228P, kappa, V domains shown, anti-IL2Rgamma mAb expressed with human IgG4 Fc) VH: EVQLVESGGGLVQPGGSLRLSCAASGFTFNNYAMHWVRQAPGKGLEYVSSISSSGGSTYYEDSVKGRFTISRDNSKNTLYLQMGSLRAEDMAVYYCARSFYGSGTYYDTFDMWGQGTMVTVSS VL: DIQMTQSPSSLSASIGDRVTITCRASQSISRYLNWYQQKPGKAPKLLIYAASSLQSGVPSRFSASGSGTDFTLTISSLQPEDFATYYCQQSYSTPFTFGQGTKLEIKR

Continued, binder first:

Binder | 100 nM Ag Bound (RU) [1] [RU] | koff [1] [s⁻¹] | t1/2 [1] [min] | 100 nM Ag Bound (RU) [2] [RU] | koff [2] [s⁻¹] | t1/2 [2] [min] | 100 nM Ag Bound (RU) [3] [RU] | koff [3] [s⁻¹] | t1/2 [3] [min] | 100 nM Ag Bound (RU) [4] [RU] | koff [4] [s⁻¹] | t1/2 [4] [min] | 100 nM Ag Bound (RU) [5] [RU] | koff [5] [s⁻¹] | t1/2 [5] [min] | 100 nM Ag Bound (RU) [6] [RU] | koff [6] [s⁻¹] | t1/2 [6] [min]
H4H12889P (antibody, human IgG4 S228P, kappa, V domains shown, anti-IL2Rgamma mAb expressed with human IgG4 Fc; also called REGN7257) VH: EVQLVESGGGLVQPGGSLRLSCAASGFIFSSYEMHWVRQAPGKGLEWISYISSSGTTIYYADSVKGRFTISRDNAKNSLYLHMNSLRAEDTAVYYCTRARITGTFDVFDIWGQGTMVTVSS VL: DIQMTQSPSSLSASVGDRVTITCRASQSISSYLNWYQQKPGKAPKLLIFAASNLQSGVPSRFSGSRSGTDFTLTISSLQPEDFATYYCQQNYNIPYTFGQGTKLEIKR | 118 | 0.000138 | 84 | 123 | 0.000157 | 74 | 130 | 0.000437 | 26 | 126 | 0.000434 | 27 | 147 | 0.000636 | 18 | 153 | 0.00188 | 6
H4H12899P (antibody, human IgG4 S228P, kappa, V domains shown, anti-IL2Rgamma mAb expressed with human IgG4 Fc) VH: QVQLVESGGDLVKPGGSLRLSCATSGFTFSDFYMTWIRQAPGKGLEWISYISNSGSIVKYADSVKGRFTISRDNAKNSLYLQMNSLRAEDTAIYYCARFYGDRWGQGTLVTVSS VL: DIQLTQSPSFLSASVGDRVTITCWASQGISTFLAWYQQKPGKAPKLLIYAASTLQSGVPSRFSGSGSGTDFTLTISSLQPEDFATYHCQQLNNYPWTFGQGTKVEIKR | 118 | 0.000174 | 66 | 117 | 0.000167 | 69 | 96 | 0.000568 | 20 | 95 | 0.000703 | 16 | 158 | 0.000668 | 17 | 125 | 0.00219 | 5
H4H12900P (antibody, human IgG4 S228P, kappa, V domains shown, anti-IL2Rgamma mAb expressed with human IgG4 Fc) VH: QVQLVESGGGLVKPGGSLRLSCEASGFTFNDFYMTWIRQAPGKGLEWIAYISKSGDKMRYADSVKGRFSTSRDNAKNSLSLQMNSLRAEDTAVYYCARFYGDIWGQGTLVTVSS VL: DIQLTQSPSFLSASVGDRVTITCWASQDISSFLVWYQQKPGKAPNLLIYAASALQSGVPSRFSGSGSGTEFTLTISSLQPEDFASYYCEQLNNYPWTFGQGTKVEIKR | 130 | 0.000175 | 66 | 129 | 0.000175 | 66 | 101 | 0.000692 | 17 | 100 | 0.000671 | 17 | 162 | 0.000711 | 16 | 133 | 0.00271 | 4
H4H13541P (antibody, human IgG4 S228P, kappa, V domains shown, anti-IL2Rgamma mAb expressed with human IgG4 Fc) VH: EVQLVESGGGVVRPGGSLRLSCAASGFIFDDYDMSWVRQPPGRGLEWVSGIDWFGGTRGYADSMKGRFTISRDNAKNSLYLQMNSLRVEDTAFYYCARGGAIVGAVTPFDYWGQGTLVTVSS VL: DIQMTQSPSSLSASVGNRVTLSCRASQSINTYLSWYQQRPGKAPKLLIYAASSLQSGVPSRFSGSGAGTDFTLTISSLQPEDFATYYCQQSYSAPLTFGGGTKVEIKR | 72 | 0.000165 | 70 | 80 | 0.000222 | 52 | 66 | 0.000469 | 25 | 69 | 0.000497 | 23 | 98 | 0.000532 | 22 | 95 | 0.00158 | 7
H4H12884P (antibody, human IgG4 S228P, kappa, V domains shown, anti-IL2Rgamma mAb expressed with human IgG4 Fc) VH: QVQLQESGPGLVKPSQTLSLTCTVSGGSISSGGYYWSWIRQHPGKGLEWIGFIYYSGKTYYNPSLKSRLTISVDTSKSQFSLKLRSVTAADTAVYYCARLGYTNSAGWFDPWGQGTLVTVSS VL: DIQMTQSPSSLSASVGDRVTITCRASQSISSYLNWYQQKPGKAPNLLIYAASSLQSGVPSRFSGSGSGTDFTLTISSLQPEDLATYYCQQSYTTPFTFGPGTKVDIKR | 161 | 0.00064 | 18 | 160 | 0.000516 | 22 | 135 | 0.00199 | 6 | 133 | 0.00159 | 7 | 171 | 0.00151 | 8 | 136 | 0.00379 | 3
